Measured values published in paper PMC9011129.
Numbering of substitutions follows the chain as printed. Read-outs that look alike come from different tables or passages of the source.

B1: Non1 42-mer (ssRNA)
RNA: CUUUUUGGAAUACGAAGCUGACACCGCGUGGUGUUUUUGCUU
modifications: 5' cap (Vaccinia capping system)
B2: RpL30 42-mer (ssRNA)
RNA: CUUUUGCCAUUGUCAGCCGACGAAGUGCUUUAACCCAAACUA
modifications: 5' cap (Vaccinia capping system)
B3: Purine-substituted RpL30 control (ssRNA)
RNA: B2 RNA with C1G, U2A, U3A, U4A, U5A
modifications: 5' cap (Vaccinia capping system)

Experiments:
Larp-DM15 [1] = target: T1, Larp-DM15 (Drosophila melanogaster, UniProt Q9VAW5 1330-1481); experiment: EMSA
T1 sequence (Q9VAW5 1330-1481): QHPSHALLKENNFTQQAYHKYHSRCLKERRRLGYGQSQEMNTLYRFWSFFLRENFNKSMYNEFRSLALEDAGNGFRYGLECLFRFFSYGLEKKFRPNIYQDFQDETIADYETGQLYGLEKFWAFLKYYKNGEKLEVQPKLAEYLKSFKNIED

Larp-DM15 [2] = target: T1, Larp-DM15; experiment: EMSA; remark: listed apart in the source

Row | Binder | binding result (Larp-DM15 [1]) | binding result (Larp-DM15 [2])
1 | B1 | binds | 
2 | B2 |  | binds
3 | B3 |  | no binding
